Laboratory results: US20040043420A1, “Method of identifying conformation-sensitive binding peptides and uses thereof” (priority 2003, published 2004)

Legend:
androgen receptor [1] = target: T1, androgen receptor (Homo sapiens, UniProt P10275); type: cell-based; design: expressed in transfected cells
T1 sequence (P10275 1-920): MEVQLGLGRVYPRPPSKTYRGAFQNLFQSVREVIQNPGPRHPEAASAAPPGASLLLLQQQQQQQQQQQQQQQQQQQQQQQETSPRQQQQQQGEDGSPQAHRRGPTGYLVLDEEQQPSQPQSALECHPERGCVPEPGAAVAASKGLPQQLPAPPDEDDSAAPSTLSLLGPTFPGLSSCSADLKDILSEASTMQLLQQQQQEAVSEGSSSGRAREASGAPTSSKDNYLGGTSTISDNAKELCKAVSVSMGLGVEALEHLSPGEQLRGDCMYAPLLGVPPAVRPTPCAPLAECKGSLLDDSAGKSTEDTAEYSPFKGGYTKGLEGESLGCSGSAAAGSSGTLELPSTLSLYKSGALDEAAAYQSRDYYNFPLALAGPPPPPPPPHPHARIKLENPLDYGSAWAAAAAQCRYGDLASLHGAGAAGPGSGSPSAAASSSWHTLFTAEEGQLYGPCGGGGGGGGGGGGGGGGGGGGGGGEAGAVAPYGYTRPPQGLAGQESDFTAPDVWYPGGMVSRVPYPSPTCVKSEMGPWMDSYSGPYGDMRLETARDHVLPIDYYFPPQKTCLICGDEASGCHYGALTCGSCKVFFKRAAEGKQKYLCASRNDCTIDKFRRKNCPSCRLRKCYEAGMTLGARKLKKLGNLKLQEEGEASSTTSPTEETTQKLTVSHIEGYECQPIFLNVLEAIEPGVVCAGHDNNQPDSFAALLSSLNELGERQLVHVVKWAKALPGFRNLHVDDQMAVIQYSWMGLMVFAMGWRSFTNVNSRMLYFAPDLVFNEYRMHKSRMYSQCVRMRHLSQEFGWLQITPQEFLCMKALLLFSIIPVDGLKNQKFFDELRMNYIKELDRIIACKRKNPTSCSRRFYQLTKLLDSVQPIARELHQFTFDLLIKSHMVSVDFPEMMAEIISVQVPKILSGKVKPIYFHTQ
Excerpt: We used a mammalian two-hybrid system to determine specificities of the AR-binding peptides previously identified, through screening of the aforementioned yeast library, as ligand-dependent in their binding activity. Ligand was provided to the cells so the interaction could be observed. The human hepatoma cell line, Huh-7, was used as the recipient of two-hybrid vectors, pM and pVP16 (Clontech) (FIGS. 6A and 6B), containing fusions with peptide and AR, respectively. According to Clontech literature, the Clontech vectors pM and VP16 generate fusions of protein X with the GAL4 DNA-BD and fusions of protein Y with the VP16AD, in the Mammalian MM Two-Hybrid Assay Kit (#K1602-1). (Note: pM and VP16 contain unique cloning sites in the same order and reading frame as the DNA-BD and AD, respectively, vectors in the yeast […] Two-Hybrid Systems.) A third vector, pG5CAT, provides a CAT reporter gene under the control of a GAL4-responsive element and minimal promoter of the adenovirus E1b. The three vectors are cotransfected into any suitable mammalian host cell line by standard methods. The interaction between proteins X and Y is then assayed by measuring CAT gene expression by any standard method. In the absence-of activation (i.e., no protein-protein interaction), the minimal E1b promoter will not express significant levels of CAT.
Briefly, cells are seeded in a 24-well culture plate to a density of 50-80% confluence in phenol red-free media containing charcoal-dextran stripped fetal bovine serum (10%). Following incubation overnight, cells are transfected with plasmids pM-peptide, pVP16-AR, pCMV-b-gal, and p5XGAL-Luc3 DNAs using lipofectamine 2000 (LifeTech) according to the manufacturer's protocol. Transfections are allowed to proceed for 6 hours and the transfection media is aspirated and replaced with recovery media for 18 hours. Following the recovery period, cells are treated with compound for 24 hours prior to cell harvesting. Cells are washed with PBS and then lysed using the lysis buffer from the Galacto-Light Plus β-galactosidase assay kit (Tropix). Assays for luciferase and β-galactosidase were performed as described by the manufacturer. Peptide/AR interactions are described in terms of the luciferase activity normalized for transfection efficiency using β-galactosidase activity (see FIG. 4A). Two types of useful information arose from these methods: 1) we generated a panel of useful peptide probes to analyze the conformational state of AR, and 2) we “fingerprinted” AR modulators with respect to AR conformation (FIG. 4B). […] FIG. 4B is the converse of 4A. It compares the ability of six ligands (DHT, MPA, CYP, RU486, FLUT and DHEAs to interact with AR in the presence of each of four peptides (D30, 5G11, B8H3 and […]). Thus, it is a “fingerprint” of each of the six ligands using a four peptide panel. (Note that “1269” and D30″ refer to the same peptide.)

androgen receptor [2] = target: T1, androgen receptor; type: cell-based; design: expressed in transfected cells; remark: listed apart in the source
androgen receptor [3] = target: T1, androgen receptor; assay: Yeast two-hybrid screening of unbiased X15 peptide library, ligand-induced β-galactosidase activity (FIG. 3, Table 503); type: cell-based; design: expressed in transfected cells; host or cells: Saccharomyces cerevisiae PJ69-4α
Excerpt: Our library contained predominantly 15 random amino acid residues/peptide in order to identify motifs that might interact with nuclear receptor domains. If ligand is provided to the cells, one can screen for peptides that interact with the ligand-bound receptor. […] Included at the ends of the oligonucleotide were the synthetic restriction endonuclease cleavage sites, EcoRI or Mfe I (5′ end) and Sal I (3′ end). Oligonucleotides were annealed, then cleaved with excess restriction endonuclease and purified on agarose gels. The purified set of oligonucleotides was subcloned as an in-frame carboxy-terminal fusion to a Gal4 DNA binding domain (plasmid vector pMA424 derivative). […] The transformation mix was divided and grown on plates of selective media containing ligand and 25 mM 3-aminotriazole at 30° C. until colonies appeared in 3-7 days. […] Dihydrotestosterone (DHT) and medroxyprogesterone (MPA) were added to the media at 100 nM to identify peptides that interact with the receptor in the presence of ligand. After colonies appeared they were picked and dispersed into individual wells of a 96-well plate containing rich media (YPD).
To determine ligand dependence, two microliter aliquots were removed from the cell suspension, and arrayed and spotted onto each of two rectangular agar plates, one with 100 nM ligand and one without ligand. Growth was monitored daily.
A secondary test of ligand dependent activation was performed using the integrated GAL4-driven lacZ gene. Cell suspensions of the initial positive clones were diluted 20-fold into 20 microliters of rich media in a microplate and grown overnight at 30° C. in the presence and absence of ligand. Microplates were centrifuged for 5 minutes at 3000 rpm in a swinging table top centrifuge to pellet the yeast cells, and the overlying media was aspirated. […] An OD650 density determination was made to normalize the β-galactosidase activity. β-galactosidase activity was monitored following the addition of buffer containing chlorophenol red-1-galactopyranoside (CPRG) (Boehringer Mannheim) substrate at a final concentration of 0.5 mM. […] The maximum slope value of this measurement was normalized to cell density from the initial OD650 value, and the relative ligand dependence of β-galactosidase was determined by comparing the values plus and minus ligand.
In FIG. 3, all of these ligands were tested. The plasmids from true positives were extracted using standard yeast extraction protocols and re-transformed to verify the positive phenotype.

ER α [4] = target: T2, ER α (UniProt P03372 1-595, limits assumed); assay: phage isolated on ERα-ERE; Raloxifen
T2 construct: also called estrogen receptor α; ERα-ERE
T2 sequence (looked up): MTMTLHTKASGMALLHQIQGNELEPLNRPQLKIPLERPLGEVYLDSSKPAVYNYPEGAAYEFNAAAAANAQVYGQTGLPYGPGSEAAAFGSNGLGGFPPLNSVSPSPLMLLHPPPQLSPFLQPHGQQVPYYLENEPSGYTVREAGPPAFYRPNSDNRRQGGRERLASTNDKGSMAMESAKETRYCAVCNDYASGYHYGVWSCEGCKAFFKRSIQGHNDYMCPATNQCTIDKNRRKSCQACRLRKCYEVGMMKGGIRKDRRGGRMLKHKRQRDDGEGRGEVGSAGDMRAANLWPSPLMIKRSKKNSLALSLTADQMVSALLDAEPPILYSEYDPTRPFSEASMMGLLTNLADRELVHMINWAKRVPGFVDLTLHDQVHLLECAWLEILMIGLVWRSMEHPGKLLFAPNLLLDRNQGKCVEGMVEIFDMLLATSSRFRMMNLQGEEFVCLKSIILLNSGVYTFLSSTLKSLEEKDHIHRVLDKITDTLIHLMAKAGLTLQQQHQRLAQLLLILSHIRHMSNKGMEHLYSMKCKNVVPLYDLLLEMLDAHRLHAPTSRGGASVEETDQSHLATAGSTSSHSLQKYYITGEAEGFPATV

ER β [5] = target: T3, ER β (UniProt Q92731 1-530, limits assumed); assay: peptide probe binding to ERβ, Estriol
T3 construct: In vitro; also called estrogen receptor β; ERβ-ERE
T3 sequence (Q92731 whole entry): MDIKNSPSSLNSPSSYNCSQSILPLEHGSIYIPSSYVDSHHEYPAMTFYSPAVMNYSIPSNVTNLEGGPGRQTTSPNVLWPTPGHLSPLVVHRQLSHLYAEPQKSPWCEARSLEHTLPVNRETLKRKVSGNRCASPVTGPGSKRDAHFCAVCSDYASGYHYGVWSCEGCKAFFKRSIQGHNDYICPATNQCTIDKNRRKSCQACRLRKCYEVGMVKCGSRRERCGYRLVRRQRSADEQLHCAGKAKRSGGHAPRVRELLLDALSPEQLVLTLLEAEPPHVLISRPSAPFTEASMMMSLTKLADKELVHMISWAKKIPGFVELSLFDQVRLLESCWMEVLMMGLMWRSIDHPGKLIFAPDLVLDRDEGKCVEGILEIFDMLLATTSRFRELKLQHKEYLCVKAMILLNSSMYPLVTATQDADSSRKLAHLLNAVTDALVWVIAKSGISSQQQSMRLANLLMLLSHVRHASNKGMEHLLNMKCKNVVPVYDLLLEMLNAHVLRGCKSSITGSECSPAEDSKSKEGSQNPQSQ

ER β [6] = target: T3, ER β; assay: peptide probe binding to ERβ, GW 7604
ER β [7] = target: T3, ER β; assay: peptide probe binding to ERβ, Clomiphene
ER β [8] = target: T3, ER β; assay: peptide probe binding to ERβ, Raloxifene
ER α [9] = target: T2, ER α; assay: peptide probe binding to ERα, ICI 182,780
ER β [10] = target: T3, ER β; assay: peptide probe binding to ERβ, 17β-Estradiol
ER α [11] = target: T2, ER α; assay: peptide probe binding to ERα, 4-OH Tamoxifen
ER α [12] = target: T2, ER α; assay: peptide probe binding to ERα, Diethylstilbesterol
ER α, P03372 [13] = target: T4, ER α, P03372; assay: peptide probe binding to ERα, all modulators
T4 chain: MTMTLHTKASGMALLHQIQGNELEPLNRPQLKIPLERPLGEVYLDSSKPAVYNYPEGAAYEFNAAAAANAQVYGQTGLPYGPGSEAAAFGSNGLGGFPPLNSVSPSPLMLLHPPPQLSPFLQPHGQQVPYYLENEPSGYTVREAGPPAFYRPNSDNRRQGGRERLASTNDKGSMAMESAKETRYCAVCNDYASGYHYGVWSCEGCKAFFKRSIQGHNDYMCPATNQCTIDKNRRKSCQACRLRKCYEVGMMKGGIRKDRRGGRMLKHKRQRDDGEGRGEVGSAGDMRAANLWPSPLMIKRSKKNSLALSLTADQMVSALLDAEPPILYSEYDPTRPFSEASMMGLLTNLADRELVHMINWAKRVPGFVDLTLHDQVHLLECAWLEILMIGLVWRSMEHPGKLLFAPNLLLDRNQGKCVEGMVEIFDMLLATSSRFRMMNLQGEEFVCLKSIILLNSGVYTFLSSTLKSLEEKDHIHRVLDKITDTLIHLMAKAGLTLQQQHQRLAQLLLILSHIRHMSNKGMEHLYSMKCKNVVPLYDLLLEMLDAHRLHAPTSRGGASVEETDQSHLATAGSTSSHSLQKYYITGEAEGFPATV

ER α, P03372 [14] = target: T4, ER α, P03372; assay: peptide probe binding to ERα, Buffer
ER α, P03372 [15] = target: T4, ER α, P03372; assay: peptide probe binding to ERα, GW7604
ER α, P03372 [16] = target: T4, ER α, P03372; assay: peptide probe binding to ERα, Estriol
ER α, P03372 [17] = target: T4, ER α, P03372; assay: peptide probe binding to ERα, Clomiphene
ER α, P03372 [18] = target: T4, ER α, P03372; assay: peptide probe binding to ERα, Nafoxidine
ER α, P03372 [19] = target: T4, ER α, P03372; assay: peptide probe binding to ERα, Raloxifene
ER α, P03372 [20] = target: T4, ER α, P03372; assay: peptide probe binding to ERα, ICI 182,780
ER α, P03372 [21] = target: T4, ER α, P03372; assay: peptide probe binding to ERα, 17α-Estradiol
ER α, P03372 [22] = target: T4, ER α, P03372; assay: peptide probe binding to ERα, 17β-Estradiol
ER α, P03372 [23] = target: T4, ER α, P03372; assay: peptide probe binding to ERα, 4-OH Tamoxifen
ER α, P03372 [24] = target: T4, ER α, P03372; assay: peptide probe binding to ERα, Diethylstilbesterol

For EFQQCMCAEVKSWLGGSLDLOPS* [B8E9], the “Mammalian Cell Specificity Graph (FIG. 4): CYP.” value (androgen receptor [1]) was 16.02 Relative Light Units, the “Mammalian Cell Specificity Graph (FIG. 4): DHT” value (androgen receptor [1]; ligand DHT) was 19.64 Relative Light Units and the “Mammalian Cell Specificity Graph (FIG. 4): MPA” value (androgen receptor [1]; ligand MPA) was 18.51 Relative Light Units. For the same molecule, the “Mammalian Cell Specificity Graph (FIG. 4): RU486” value (androgen receptor [1]; ligand RU486) was 10.1916 Relative Light Units, the “Mammalian Cell Specificity Graph (FIG. 4): no compound” value (androgen receptor [1]; no compound) was 0.2091 Relative Light Units and the “Binding to the androgen receptor in the presence of agonists and known antagonists” value (androgen receptor [2]; ligand present (agonists, known antagonists)) was “displays binding”. For the same molecule, the “Binding to the androgen receptor in the absence of ligand” value (androgen receptor [2]; no ligand) was “not in the absence of ligand”, the Fold induction (androgen receptor [3]) was 4 and the “Yeast Specificity Graph (FIG. 3): CPA” value (androgen receptor [3]; ligand CPA) was 0.5635. For the same molecule, the “Yeast Specificity Graph (FIG. 3): DHT” value (androgen receptor [3]; ligand DHT) was 1.75, the “Yeast Specificity Graph (FIG. 3): RU” value (androgen receptor [3]; ligand RU) was 0.8 and the “Yeast Specificity Graph (FIG. 3): No Lig” value (androgen receptor [3]; no ligand) was 0.4989.

SRLCFGDWCMLGGVDVLSR [1R]: binds (ER α [4]).

SSLNMVVDTPWCGKWVCSR [2R]: binds (ER α [4]).

SSWDMHQFFWEGVSR (also called AB3) [α/β III] gave an Equiv. (ER β [5]) of -57%, an Equiv. (ER β [6]) of -86% and an Equiv. (ER β [7]) of 34%. For the same molecule, the Equiv. (ER β [8]) was 77%, the Equiv. (ER α [9]) was -100% and the Equiv. (ER β [10]) was -71%. For the same molecule, the Equiv. (ER α [11]) was 100% and the Equiv. (ER α [12]) was -53%.

Molecule SRTWESPLGTWEWSR (modifications not checked) [#13 ER] has an Equiv. (ER α, P03372 [13]) of 0%.

SSLTSRDFGSWYASR (modifications not checked) [phage 5 (Table 2)] gave an Equiv. (ER α, P03372 [14]) of 0%, an Equiv. (ER α, P03372 [15]) of 35% and an Equiv. (ER α, P03372 [16]) of 62%. It also gave an Equiv. (ER α, P03372 [17]) of 56%, an Equiv. (ER α, P03372 [18]) of 32% and an Equiv. (ER α, P03372 [19]) of 44%. For the same molecule, the Equiv. (ER α, P03372 [20]) was 56%, the Equiv. (ER α, P03372 [21]) was 80% and the Equiv. (ER α, P03372 [22]) was 100%. For the same molecule, the Equiv. (ER α, P03372 [23]) was 38% and the Equiv. (ER α, P03372 [24]) was 69%.
